Assays:
[1] = molecular target: methanol dehydrogenase MDH2 from Bacillus methanolicus PB1 (Bacillus methanolicus PB1); test: cell-based or functional assay
[2] = test system: activator protein (ACT) from Bacillus methanolicus PB1

## activator protein (ACT) from Bacillus methanolicus PB1
[1]
  specific activity of MDH2 with ACT, crude lysates: 0.009 µmol/min/mg

## methanol dehydrogenase MDH2 from Bacillus methanolicus PB1
[2]
  Km for methanol of MDH2 with ACT, crude lysates: a Km of 119 mM

From patent US20160333308A1
